Results on 167 variants are retold here after the RNAGym collection of RNA variant scans (doi:10.7554/elife.80360).

B1: HDV Ribozyme (parent)
chain: GGCCGGCAUGGUCCCAGCCUCCUCGCUGGCGCCGGCUGGGCAACAUUCCGAGGGGACCGUCCCCUCGGUAAUGGCGAAUGGGACCCA

The variants in the data set derive from B1. The data set can be described thus: self-cleavage, relative activity (ratio to wild type); higher = more cleavage; co-transcriptional.
Consider U46C C49U, for which the self-cleavage is 0.73.
Under G53U U69A stands 0.969; under C13A C41A, 0.219.
Under U23C C75A stands 0.166.
Under C7U C26G stands 0.534; under C21U A87C, 0.206.
Consider C57A C86A, for which the self-cleavage is 0.986.
Under A45U G74C stands 0.0923; under C24A G80C, 0.262.
On to G29C C44A, for which the self-cleavage was found to be 0.0554.
In the case of C15G C18A it was 0.0997.
In the case of A8C C48A it was 1.35.
Under C19A G50A stands 0.0231; under G11A U47G, 0.58; under C21U G74A, 0.149.
Consider C61G U72A, for which the self-cleavage came out at 0.457.
Under C57A G81A stands 0.339; under A8G C15U, 0.7.
Under A51C G55U stands 0.944; under C19U G76U, 0.288; under A8G C58U, 0.962.
As to A8G C58G, the self-cleavage was 0.895.
In the case of G40A C48A it was 0.941.
As for C15A U47G, the self-cleavage was determined as 0.35.
In the case of G40U G67U it was 0.757; in that of U46C C84A, 0.723.
In the case of G17C C18G it was 0; in that of U20G A43C, 0.256; in that of C21U C48U, 0.247.
In the case of C75U it was 0.19.
Turning to C13U G59A, the self-cleavage came out at 0.763.
Under G1C U65A stands 0; under C26G G52A, 0.867.
In the case of A56G C57U, the self-cleavage was 0.985.
In the case of G53A it was 1; in that of U12A C66U, 0.317; in that of C48A C64A, 0.867.
In the case of U12A G39U it was 0.0489.
For the variant G5A C61A, the self-cleavage was found to be 0.0573.
With C75G G80A, the self-cleavage turned out to be 0.11.
In the case of G2A U69G it was 0.219.
Under G1C G31C stands 0; under C14G A45G, 0.0875.
In the case of C15U U46A it was 0.692; in that of C61A A71C, 1.12.
Take U46G U72C: the self-cleavage came to 0.287.
Regarding G2A A83G, the self-cleavage amounted to 0.122.
Under C48G U69A stands 0.956; under C3G G38U, 0.166; under C41G A56G, 0.851.
In the case of U65A G74C it was 0.225; in that of G54C C75A, 0.138; in that of G29U G34U, 0.0519.
Consider G74C U79G, for which the self-cleavage was 0.302.
In the case of C36A G74U it was 0.14; in that of U12A C36G, 0.0707.
Under C4A G28A stands 0.0489; under G25C A83G, 0.0302; under G52A A71G, 0.845.
In the case of G1U G74U it was 0.358.
In the case of G11C G52U, the self-cleavage was 0.228.
In the case of G50C A70C it was 0.517.
Consider C44A C49A, for which the self-cleavage was 0.554.
Under C44G A87C stands 0.621; under C26G A70G, 0.665.
On to C21U C44G, for which the self-cleavage was 0.424.
Under U27A A51U stands 0.739; under C7G A16G, 0.0978.
For the variant A45U C85A, the self-cleavage came out at 0.88.
Under C22A G68U stands 0.212; under G40C C85A, 0.128.
Under G5A A87U stands 0.218; under G1U G6U, 0.429; under A56C G76U, 1.19.
Consider G1U G68C, for which the self-cleavage stood at 0.431.
In the case of G10C A16C it was 0.88; in that of G29C A70U, 0.0811; in that of C61U U69A, 0.914.
Under C58U G81C stands 0.31.
Under C30A C44A stands 0.208; under C15U C86G, 0.91; under G39A U79C, 0.0723.
As for C41U C86G, the self-cleavage came out at 0.784.
Under A8U C24U stands 0.787.
Under G82A A87U stands 0.443; under U12G C22A, 0.277.
Under C14G C64U stands 0.516.
For the variant A16C C62A, the self-cleavage is 0.917.
In the case of G28U C36U it was 0; in that of C62G A70G, 0.578.
In the case of U20C U46A it was 0.317; in that of C66A G73A, 0.63.
Consider C19G G54U, for which the self-cleavage was found to be 0.0594.
Under G6C G31U stands 0; under G10C G34C, 0.289; under G82U C85U, 0.451.
Under C36A A87C stands 0.147; under A16C G74A, 0.0692.
Under G74A C75G stands 0.17; under G25C G68C, 0.0639; under G50U C62U, 0.95.
For G74A A83G, the self-cleavage was found to be 0.205.
In the case of C21A A71U it was 0.106; in that of A8C C18G, 0.0875.
Under C41G G52C stands 0.509; under C32A G53U, 0.214; under C48G A83G, 0.779.
As to U65C A77G, the self-cleavage worked out at 0.831.
In the case of G39A G50C it was 0.504; in that of G10A A45U, 0.534.
Under C63U G82C stands 0.192.
C63U G82A: the self-cleavage is 0.534.
In the case of C13U C75G it was 0.0723; in that of C7U A51G, 0.965.
For the variant C24A G73A, the self-cleavage turned out to be 0.234.
In the case of U69C C75A it was 0.0536; in that of C19G C41A, 0.157; in that of C3G U47C, 0.54.
Under G10A G35A stands 0.281; under G67C A83U, 0.469; under C21G A56G, 0.0791.
In the case of C30U G81U it was 0.149.
With U46C G82A, the self-cleavage worked out at 0.224.
Take C18A C84A: the self-cleavage stood at 0.151.
Under C3U G55A stands 0.763; under C18U U60C, 0.7; under G25C C61A, 0.201.
In the case of U27G A43G it was 0.302; in that of G6U U12C, 0.0573; in that of C4G G11C, 0.
Under C24A C41U stands 0.354; under C4U G55C, 0.656; under C62G C63A, 0.639.
Turning to U12C A78U, the self-cleavage was 0.
Under G40A A45C stands 0.671; under C64U G73U, 0.345.
As to C22G G25C, the self-cleavage was 0.0665.
As to G1A G76C, the self-cleavage turned out to be 0.185.
In the case of C24U U46G it was 0.415; in that of U9C C75A, 0.115; in that of G55A A77U, 0.694.
As to C14A G38U, the self-cleavage stood at 0.182.
In the case of G59C A78G it was 0.778; in that of G39C A71G, 0.158; in that of C3G G31C, 0.0455.
In the case of C30A G76U it was 0.554; in that of U47C C64U, 0.692; in that of G34A A45G, 0.199.
Take G6U G67U: the self-cleavage is 0.62.
As to G6U G67A, the self-cleavage was 0.517.
Under U12C U20C stands 0; under U79C C86U, 0.696; under G31C G73U, 0.0779.
In the case of G6C C33G it was 0.185; in that of G50C C75U, 0.162.
Under G28U C64A stands 0.125; under G1A C22U, 0.0779; under U9A G67A, 0.937.
Regarding U9A G67U, the self-cleavage came to 0.849.
In the case of A42U C48U it was 0.506.
Under C24A G29A stands 0.106; under G53U C63G, 1.02; under G73C A78C, 0.0773.
In the case of U23G A77U it was 0.237.
As to A8C G38C, the self-cleavage stood at 0.0978.
Under C32G A78G stands 0.0536; under C14G C18G, 0.
